We go through 1 molecule from publication PMC2192624 (The Journal of Experimental Medicine, 1996).

The experiment deals with T1, Gal4 DNA-binding domain (DNABD) linked to the full-length CIITA (pSGCIITA) (UniProt P33076 1-1130).
T1 sequence: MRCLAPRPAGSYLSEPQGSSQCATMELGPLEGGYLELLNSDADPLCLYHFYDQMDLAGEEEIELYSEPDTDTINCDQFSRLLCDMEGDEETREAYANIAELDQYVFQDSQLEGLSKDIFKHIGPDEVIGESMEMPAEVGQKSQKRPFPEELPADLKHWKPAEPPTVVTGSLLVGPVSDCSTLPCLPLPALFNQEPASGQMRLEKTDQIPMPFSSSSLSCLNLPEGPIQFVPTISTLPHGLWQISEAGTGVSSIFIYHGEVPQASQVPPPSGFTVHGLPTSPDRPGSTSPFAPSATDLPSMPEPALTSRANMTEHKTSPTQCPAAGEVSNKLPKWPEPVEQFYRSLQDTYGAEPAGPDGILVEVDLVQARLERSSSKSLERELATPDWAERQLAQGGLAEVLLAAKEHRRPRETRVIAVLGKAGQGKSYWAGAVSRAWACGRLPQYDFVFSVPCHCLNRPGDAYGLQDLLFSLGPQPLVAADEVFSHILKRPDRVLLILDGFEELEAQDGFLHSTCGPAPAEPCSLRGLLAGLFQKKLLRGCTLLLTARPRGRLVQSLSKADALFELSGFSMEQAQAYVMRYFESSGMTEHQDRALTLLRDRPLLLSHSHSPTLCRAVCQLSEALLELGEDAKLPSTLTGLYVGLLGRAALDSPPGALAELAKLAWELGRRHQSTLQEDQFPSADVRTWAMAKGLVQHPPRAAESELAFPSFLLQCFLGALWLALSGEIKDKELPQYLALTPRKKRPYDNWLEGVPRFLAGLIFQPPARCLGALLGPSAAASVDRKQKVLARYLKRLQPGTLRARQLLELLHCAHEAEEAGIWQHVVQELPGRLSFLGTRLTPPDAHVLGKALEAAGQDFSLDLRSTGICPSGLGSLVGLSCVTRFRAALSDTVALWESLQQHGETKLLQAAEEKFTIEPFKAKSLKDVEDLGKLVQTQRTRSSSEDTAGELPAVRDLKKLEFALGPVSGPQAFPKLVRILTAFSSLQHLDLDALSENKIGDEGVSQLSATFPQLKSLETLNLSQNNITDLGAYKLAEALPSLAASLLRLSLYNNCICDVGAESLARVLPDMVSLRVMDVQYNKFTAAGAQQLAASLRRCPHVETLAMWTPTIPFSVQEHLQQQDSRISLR
Kind of experiment: two-hybrid.

B1: Bob1 expressed from pCBOB1 (natural protein)
chain: MLWQKPTAPEQAPAPARPYQGVRVKEPVKELLRRKRGHASSGAAPAPTAVVLPHQPLATYTTVGPSCLDMEGSVSAVTEEAALCAGWLSQPTPATLQPLAPWTPYTEYVPHEAVSCPYSADMYVQPVCPSYTVVGPSSVLTYASPPLITNVTTRSSATPAVGPPLEGPEHQAPLTYFPWPQPLSTLPTSTLQYQPPAPALPGPQFVQLPISIPEPVLQDMEDPRRAASSLTIDKLLLEEEDSDAYALNHTLSVEGF
B1: the “fold transactivation of pDRAUASgCAT (CAT reporter, with OBS)” value stood at 95 fold and the “fold transactivation of pG1E1bCAT (CAT reporter, no OBS)” value came out at 90 fold.
